The chains are these.
B1: Purified human calcium-replete thrombospondin-1 (TSP1) from thrombin-activated platelets (ligand)
chain: not shown
notes: mature; also called purified platelet TSP1
B2: RANTES (regulated on activation normal T expressed and secreted protein) (ligand, UniProt P13501 24-91, looked up)
chain: SPYSSDTTPCCFAYIARPLPRAHIKEYFYTSGKCSNPAVVFVTRKNRQVCANPEKKWVREYINSLEMS

Experiment [1] addresses T1, CHO cell-expressed soluble recombinant CD4 (UniProt P01730 26-394).
T1 construct: also called soluble CD4
Kind of experiment: solid phase binding, 125I-CD4 on immobilized TSP1.
Method: (§1) Washed wells were blocked with 0.5% bovine serum albumin ("BSA"), then incubated in triplicate with soluble radiolabeled ligand for 2.5 hours at 37° C. After extensive washing in 50 mM Tris pH 7.5, 150 mM NaCl, 0.5% Tween-20 (TBS-Tween), bound radioactivity was quantified by gamma counter. […] Specific binding was determined as quenchable in the presence of excess unlabeled ligand, above background binding to BSA-coated wells.

Experiment [2] addresses B1. Kind of experiment: solid phase binding, 125I-RANTES on immobilized TSP1; saturatable, biphasic.
Method: as §1

As to B1, the binding result in experiment [1] is “binds”.

As to B2, the EC50 in experiment [2] is around 330 nM.

For the origin of these results see patent US6964763 (CORNELL RESEARCH FOUNDATION, dated 2005).
